This note sets out measurements from the Human Domainome abundance scans (Beltran et al. 2025).

The labels stand for the following.
B1: Tyrosine-protein kinase BTK, residues 215 to 273; numbered along this chain, Q06187 (parent)
chain: ELKKVVALYDYMPMNANDLQLRKGDEYFILEESNLPWWRARDKNGQEGYIPSNYVTEAE

± gives the uncertainty stated by the source.

Variants of B1 are the subject of this data set. Put plainly: abundance fitness (aPCA) (normalised: wild type 0, dead -1); higher = more abundant; growth selection in yeast, the domain comes from the species named. The conditions noted are these: Homo sapiens.
With S52G, the abundance fitness is -0.028 ± 0.036.
Take S52A: the abundance fitness is -0.009 ± 0.047.
On to A40V, for which the abundance fitness is -0.047 ± 0.04.
Turning to A40R, the abundance fitness was -0.825 ± 0.044.
Take A40S: the abundance fitness is -0.298 ± 0.038.
As to A40L, the abundance fitness was -0.181 ± 0.034.
For E47I, the abundance fitness was -0.142 ± 0.072.
Under E47F stands -0.235 ± 0.055; under E47R, -0.244 ± 0.036.
In the case of E47P, the abundance fitness was -0.473 ± 0.056.
Under E47H stands -0.219 ± 0.07; under V55R, -0.905 ± 0.063; under V55D, -0.891 ± 0.11.
Under V55Q stands -0.945 ± 0.16.
For the variant V55Y, the abundance fitness was -0.836 ± 0.15.
As to L30C, the abundance fitness is -0.207 ± 0.061.
L30K: the abundance fitness was -0.076 ± 0.044.
Consider L30D, for which the abundance fitness is -0.397 ± 0.12.
For Q20D, the abundance fitness is -0.168 ± 0.077.
For Q20T, the abundance fitness was -0.043 ± 0.05.
In the case of Q20V, the abundance fitness was -0.082 ± 0.034.
Consider Q20R, for which the abundance fitness is -0.013 ± 0.045.
Under K23I stands -0.207 ± 0.13; under K23M, -0.169 ± 0.046.
Under K23G stands -0.143 ± 0.034.
Consider R39F, for which the abundance fitness was -0.069 ± 0.057.
In the case of R39V, the abundance fitness is -0.065 ± 0.033.
For the variant R41M, the abundance fitness is -0.003 ± 0.058.
Under N53D stands -0.043 ± 0.065; under N53Q, -0.041 ± 0.067; under N53T, -0.054 ± 0.052.
Regarding N53M, the abundance fitness was -0.079 ± 0.048.
Under Y27H stands -0.754 ± 0.12; under Y27E, -0.646 ± 0.064.
Consider Y27D, for which the abundance fitness is -0.692 ± 0.11.
On to L21M, for which the abundance fitness is -0.079 ± 0.05.
For the variant L21S, the abundance fitness was -0.811 ± 0.057.
As to W37V, the abundance fitness was determined as 0.013 ± 0.037.
Under W37M stands 0.006 ± 0.044; under W37P, -0.227 ± 0.052; under W37Q, 0.021 ± 0.058.
For the variant W37K, the abundance fitness came to 0.027 ± 0.056.
For the variant W37D, the abundance fitness is -0.129 ± 0.056.
Turning to K4S, the abundance fitness was -0.1 ± 0.043.
Under K4Y stands -0.285 ± 0.06; under K4A, -0.168 ± 0.048.
Take D42L: the abundance fitness was -0.81 ± 0.052.
As to D42T, the abundance fitness was -0.065 ± 0.05.
Regarding D42K, the abundance fitness was -0.575 ± 0.085.
D42Y: the abundance fitness is -0.889 ± 0.092.
Regarding E59T, the abundance fitness is -0.012 ± 0.083.
As to E59M, the abundance fitness is -0.138 ± 0.083.
Under E59Q stands -0.015 ± 0.1; under E59H, -0.054 ± 0.13.
Under E59F stands -0.072 ± 0.1; under E59I, -0.014 ± 0.088.
Under E59C stands -0.061 ± 0.073; under E59Y, -0.116 ± 0.097; under Y11G, -0.709 ± 0.058.
On to Y11I, for which the abundance fitness was -0.245 ± 0.05.
With Y11T, the abundance fitness is -0.182 ± 0.058.
Turning to Y11L, the abundance fitness was -0.094 ± 0.031.
For Y11M, the abundance fitness is -0.099 ± 0.06.
E31I: the abundance fitness was -0.117 ± 0.054.
Under E31D stands -0.058 ± 0.078; under E31V, -0.119 ± 0.04; under E31A, -0.008 ± 0.052.
Regarding E31H, the abundance fitness was -0.054 ± 0.062.
Under E31G stands -0.051 ± 0.036.
In the case of E31Q, the abundance fitness was determined as 0.072 ± 0.058.
In the case of E31N, the abundance fitness is -0.058 ± 0.058.
For W38H, the abundance fitness is -0.029 ± 0.071.
For the variant W38D, the abundance fitness is -0.157 ± 0.093.
As to Y49I, the abundance fitness is 0.001 ± 0.061.
Y49R: the abundance fitness stood at 0.04 ± 0.036.
Under A7S stands -0.142 ± 0.034; under A7W, -1.03 ± 0.071.
Consider A7V, for which the abundance fitness was -0.681 ± 0.04.
Regarding A7R, the abundance fitness was -1.04 ± 0.056.
Under A7M stands -0.837 ± 0.059; under A7H, -0.804 ± 0.11.
Consider V5L, for which the abundance fitness is -0.244 ± 0.035.
Under V5T stands -0.323 ± 0.048.
In the case of V5M, the abundance fitness was -0.134 ± 0.041.
As for V5F, the abundance fitness is -0.052 ± 0.046.
Take N17Q: the abundance fitness was 0.033 ± 0.044.
For N17H, the abundance fitness worked out at 0.03 ± 0.068.
Turning to N17F, the abundance fitness is -0.029 ± 0.056.
As for N17R, the abundance fitness was -0.001 ± 0.033.
Consider G24A, for which the abundance fitness was -0.252 ± 0.039.
Under G24M stands -0.223 ± 0.045; under G24K, -0.302 ± 0.065.
Consider G24T, for which the abundance fitness was -0.395 ± 0.053.
In the case of M12R, the abundance fitness was -0.002 ± 0.029.
As for M12Y, the abundance fitness was -0.018 ± 0.069.
M12G: the abundance fitness was -0.136 ± 0.036.
For M12L, the abundance fitness was found to be 0.016 ± 0.032.
Turning to M12K, the abundance fitness amounted to 0.065 ± 0.051.
For L19P, the abundance fitness is -0.515 ± 0.055.
Turning to L19E, the abundance fitness was -0.888 ± 0.081.
For N34L, the abundance fitness stood at 0.033 ± 0.036.
Under N34Y stands -0.102 ± 0.063.
For N34T, the abundance fitness is 0.029 ± 0.054.
As for N34G, the abundance fitness amounted to 0.07 ± 0.037.
For N34H, the abundance fitness was -0.066 ± 0.076.
Take E1Q: the abundance fitness is -0.121 ± 0.12.
Under E1Y stands -0.062 ± 0.16.
I29T: the abundance fitness was -0.212 ± 0.056.
I29G: the abundance fitness is -0.847 ± 0.059.
Take I29Q: the abundance fitness is -0.624 ± 0.07.
Under I29E stands -0.58 ± 0.057; under I29V, -0.002 ± 0.038.
For the variant I29W, the abundance fitness is -0.855 ± 0.067.
Take I29P: the abundance fitness was -0.483 ± 0.05.
In the case of I29D, the abundance fitness was -0.704 ± 0.11.
For E26F, the abundance fitness was -0.024 ± 0.054.
As for E26R, the abundance fitness is -0.068 ± 0.038.
Regarding E26N, the abundance fitness was -0.098 ± 0.05.
Turning to E26L, the abundance fitness is -0.01 ± 0.036.
Take P51M: the abundance fitness is -0.123 ± 0.055.
With P51L, the abundance fitness was -0.056 ± 0.041.
As to P51V, the abundance fitness was -0.379 ± 0.038.
Regarding P51A, the abundance fitness is -0.216 ± 0.049.
Take P51N: the abundance fitness was -0.102 ± 0.084.
As for P51D, the abundance fitness was -0.196 ± 0.13.
Take A58E: the abundance fitness is 0.08 ± 0.057.
In the case of A58I, the abundance fitness was -0.223 ± 0.071.
Under A58C stands -0.058 ± 0.06; under A58Q, -0.072 ± 0.077.
In the case of A58R, the abundance fitness was -0.03 ± 0.041.
With A58W, the abundance fitness is -0.11 ± 0.083.
K43H: the abundance fitness was -0.026 ± 0.086.
As to K43N, the abundance fitness was -0.018 ± 0.085.
Under K43A stands 0.031 ± 0.038.
With K43F, the abundance fitness is -0.11 ± 0.072.
Under K43D stands -0.094 ± 0.057.
For the variant A16Y, the abundance fitness is -0.17 ± 0.06.
For A16S, the abundance fitness was -0.042 ± 0.031.
R22N: the abundance fitness is -0.012 ± 0.079.
As to R22F, the abundance fitness was -0.036 ± 0.062.
Under R22Q stands -0.011 ± 0.05; under L35F, 0.012 ± 0.058.
Turning to L35S, the abundance fitness is -0.041 ± 0.037.
Turning to L35Q, the abundance fitness is -0.012 ± 0.051.
Under L35D stands 0.05 ± 0.084; under L8G, -0.338 ± 0.027.
Consider L8R, for which the abundance fitness was -0.017 ± 0.028.
L8K: the abundance fitness is -0.003 ± 0.052.
Take L8C: the abundance fitness is -0.04 ± 0.041.
Consider S33W, for which the abundance fitness was -0.072 ± 0.044.
On to S33L, for which the abundance fitness was -0.06 ± 0.031.
Take S33F: the abundance fitness was -0.015 ± 0.052.
Under S33R stands -0.07 ± 0.033.
Consider S33T, for which the abundance fitness was determined as 0.005 ± 0.062.
In the case of S33G, the abundance fitness is -0.019 ± 0.038.
Under S33A stands 0.026 ± 0.046.
S33Q: the abundance fitness turned out to be 0.016 ± 0.069.
For I50S, the abundance fitness was -1.05 ± 0.12.
Regarding I50H, the abundance fitness is -0.592 ± 0.17.
Under I50N stands -0.92 ± 0.17; under P36N, -0.075 ± 0.071; under P36K, 0.011 ± 0.072.
Under P36F stands -0.437 ± 0.15; under P36S, -0.013 ± 0.038.
As for P36Y, the abundance fitness is -0.148 ± 0.058.
For P36C, the abundance fitness is -0.072 ± 0.049.
In the case of P36G, the abundance fitness is -0.089 ± 0.038.
